The record followed here is article PMC3047612 (The Journal of General Physiology, 2011).

The target in this test is H6 hERG 666–872 Flag (human, UniProt Q12809 666-872). The test is described as follows: pull-down.
H6 hERG 666–872 Flag, sequence (Q12809 666-872): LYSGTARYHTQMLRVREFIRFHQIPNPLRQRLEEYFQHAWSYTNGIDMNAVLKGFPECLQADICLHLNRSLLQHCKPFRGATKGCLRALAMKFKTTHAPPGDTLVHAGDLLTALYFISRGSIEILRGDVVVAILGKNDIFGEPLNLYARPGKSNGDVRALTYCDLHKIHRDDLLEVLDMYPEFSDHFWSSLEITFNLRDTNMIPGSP

B1: GST N1–135 (domain or fragment, human, UniProt Q12809 1-135, looked up)
chain: MPVRRGHVAPQNTFLDTIIRKFEGQSRKFIIANARVENCAVIYCNDGFCELCGYSRAEVMQRPCTCDFLHGPRTQRRAAAQIAQALLGAEERKVEIAFYRKDGSCFLCLVDVVPVKNEDGAVIMFILNFEVVMEK
Consider B1, for which the binding result was “binds”.
